Molecular target: T1, Smc3^E1155Q Q67C K1004C (S. cerevisiae, UniProt P47037 1-1230, Q67C | K1004C | E1155Q)
T1 construct: Smc3, S. cerevisiae, ATP hydrolysis mutant; source: S. cerevisiae W303, late G1 arrested cells, whole-cell extract
T1 sequence (looked up): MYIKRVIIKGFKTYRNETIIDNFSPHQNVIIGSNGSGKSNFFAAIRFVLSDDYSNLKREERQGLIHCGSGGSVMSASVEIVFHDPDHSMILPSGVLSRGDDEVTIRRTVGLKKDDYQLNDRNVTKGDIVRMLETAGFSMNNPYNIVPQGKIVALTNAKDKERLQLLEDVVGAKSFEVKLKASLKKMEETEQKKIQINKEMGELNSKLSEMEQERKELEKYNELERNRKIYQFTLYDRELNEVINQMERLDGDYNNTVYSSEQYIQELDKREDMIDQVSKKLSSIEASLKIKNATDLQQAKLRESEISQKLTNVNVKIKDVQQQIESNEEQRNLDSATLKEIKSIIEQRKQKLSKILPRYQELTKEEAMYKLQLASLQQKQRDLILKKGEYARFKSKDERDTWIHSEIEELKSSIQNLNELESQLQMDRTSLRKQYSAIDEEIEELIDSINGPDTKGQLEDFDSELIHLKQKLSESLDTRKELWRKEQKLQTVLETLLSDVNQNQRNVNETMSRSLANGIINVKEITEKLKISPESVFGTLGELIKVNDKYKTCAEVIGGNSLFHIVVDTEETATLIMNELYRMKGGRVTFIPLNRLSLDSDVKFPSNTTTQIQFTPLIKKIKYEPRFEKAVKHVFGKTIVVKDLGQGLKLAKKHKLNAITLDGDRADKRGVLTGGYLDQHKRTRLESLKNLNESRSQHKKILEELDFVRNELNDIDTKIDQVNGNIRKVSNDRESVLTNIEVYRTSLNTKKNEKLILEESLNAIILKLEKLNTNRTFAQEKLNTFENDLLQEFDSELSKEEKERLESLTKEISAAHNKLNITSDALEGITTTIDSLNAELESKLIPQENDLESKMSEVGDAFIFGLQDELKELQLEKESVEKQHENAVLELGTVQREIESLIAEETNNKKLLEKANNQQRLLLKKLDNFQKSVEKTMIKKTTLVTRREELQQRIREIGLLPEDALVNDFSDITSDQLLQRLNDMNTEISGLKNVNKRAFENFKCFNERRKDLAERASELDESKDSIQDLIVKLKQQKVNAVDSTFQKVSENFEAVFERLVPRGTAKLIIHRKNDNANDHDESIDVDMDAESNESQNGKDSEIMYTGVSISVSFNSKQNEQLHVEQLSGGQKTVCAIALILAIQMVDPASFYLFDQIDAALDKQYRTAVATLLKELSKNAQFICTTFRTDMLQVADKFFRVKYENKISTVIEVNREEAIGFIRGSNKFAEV
Assay: cross-linking; in vivo BMOE cross-link of cysteine pairs in yeast cells arrested in late G1 by non-degradable Sic1(9m); Scc1-PK immunoprecipitated, western blot, band intensities quantified
Details: partners not purified

B1: Scc2 D369C T1175C (natural protein, S. cerevisiae, UniProt Q04002 1-1493, looked up)
chain: MSYPGKDKNIPGRIIEALEDLPLSYLVPKDGLAALVNAPMRVSLPFDKTIFTSADDGRDVNINVLGTANSTTSSIKNEAEKERLVFKRPSNFTSSANSVDYVPTNFLEGLSPLAQSVLSTHKGLNDSINIEKKSEIVSRPEAKHKLESVTSNAGNLSFNDNSSNKKTKTSTGVTMTQANLAEQYLNDLKNILDIVGFDQNSAEIGNIEYWLQLPNKKFVLTTNCLTKLQMTIKNITDNPQLSNSIEITWLLRLLDVMVCNIKFSKSSLKMGLDDSMLRYIALLSTIVLFNIFLLGKNDSNLHRESYIMEPVNFLSDLIESLKILTIEYGSLKIEFDTFQEALELLPKYIRNGPFLDDNVTAKLVYIFSCLLMNNDIEATTNIQFQSFWDNVKRISSDILVSLFGSFDQQRGFIIEELLSHIEKLPTKRIQKKLRKVGNQNIYITDFTFTLMSMLENINCYSFCNQMKDIAPENIDLLKNEYKKQEEFLFNIVEHINDTILERFFKNPSALRYVIDNFVQDLLLLISSPQWPVTEKILSSLLKRLLSVYSPSMQVSANIETICLQLIGNIGSTIFDIKCSTRDHEDNNLIKMINYPETLPHFFKSFEECIAYNETIKCRRSATRFLWNLRLGTILILEEYTKDAKEQIITVDNELKKILEQIKDGGLGPELENREADFSTIKLDYFSILHAFELLNLYDPYLKLILSLLAKDKIKLRSTAIKCLSMLASKDKVILSNPMVKETIHRRLNDSSASVKDAILDLVSINSSYFEFYQQINNNYNDDSIMVRKHVLRINEKMYDETNDIVTKVYVIARILMKIEDEEDNIIDMARLILLNRWILKVHEVLDQPEKLKEISSSVLLVMSRVAIMNEKCSQLFDLFLNFYLLNKEAHSKEAYDKITHVLTILTDFLVQKIVELNSDDTNEKNSIVDKQNFLNLLAKFADSTVSFLTKDHITALYPYMVSDEKSDFHYYILQVFRCTFEKLANFKQKFLYDLETTLLSRLPKMNVREIDEAMPLIWSVATHRHDTARVAKACSSCLSHLHPYINKANNEEAAIVVDGKLQRLIYLSTGFARFCFPKPSNDKIAFLQEGETLYEHITKCLLVLSKDKITHVIRRVAVKNLTKLCGNHPKLFNSRHVLHLLDKEFQSDQLDIKLVILESLYDLFLLEERKSVRNCGVNSTLSSNSILKKKLLKTNRVEFANDGVCSALATRFLDNILQLCLLRDLKNSLVAIRLLKLILKFGYTNPSHSIPTVIALFASTSQYIRHVAYELLEDLFEKYETLVFSSLSRGVTKAIHYSIHTDEKYYYKHDHFLSLLEKLCGTGKKNGPKFFKVLKRIMQSYLDDITDLTSTNSSVQKSIFVLCTNISNITFVSQYDLVSLLKTIDLTTDRLKEVIMDEIGDNVSSLSVSEEKLSGIILIQLSLQDLGTYLLHLYGLRDDVLLLDIVEESELKNKQLPAKKPDISKFSAQLENIEQYSSNGKLLTYFRKHVKDT
notes: Scc2, S. cerevisiae; source: S. cerevisiae W303, late G1 arrested cells, whole-cell extract
  double crosslink band relative to that of smc3 S72C K1004C E1155Q with scc2 E819C D369C: ~15%

— PMC10516938, “Conformational dynamics of cohesin/Scc2 loading complex are regulated by Smc3 acetylation and ATP binding” (Nature Communications, 2023)
